Experimental data: US20040052799

Target: T1, N-succinyl-Ala-Ala-Pro-Phe-p-nitroanilide
T1 chain: AAPF

B1: Recombinant H. pylori peptidyl-prolyl cis-trans isomerase (ppiB), His-tagged (protein)
chain: FIAIIEHLNDKSLSQRFMMKPIKTYDIKEEELAKTAYATIKTNKGNITLELFYKDAPQAVSNFVTLAKEGFYNGLNFHRVIAGFVAQGGCPYGTGTGGPEHRIKCEVAHNPNKHQRGSISMAHAGRDTGGSQFFLCFVDLPHLDGEHTVFGKITSAESLSVLDKIKQGDIIESVVFSPSL
With B1 the kcat was “This corresponds to a kcat of 1.6 sec^-1”.
